The values that follow come from article PMC4162405 (Cell reports, 2014).

First the molecules themselves.
T1: purified human PALB2 (Partner and localizer of BRCA2) (human, UniProt Q86YC2 1-1186)
T1 sequence (looked up): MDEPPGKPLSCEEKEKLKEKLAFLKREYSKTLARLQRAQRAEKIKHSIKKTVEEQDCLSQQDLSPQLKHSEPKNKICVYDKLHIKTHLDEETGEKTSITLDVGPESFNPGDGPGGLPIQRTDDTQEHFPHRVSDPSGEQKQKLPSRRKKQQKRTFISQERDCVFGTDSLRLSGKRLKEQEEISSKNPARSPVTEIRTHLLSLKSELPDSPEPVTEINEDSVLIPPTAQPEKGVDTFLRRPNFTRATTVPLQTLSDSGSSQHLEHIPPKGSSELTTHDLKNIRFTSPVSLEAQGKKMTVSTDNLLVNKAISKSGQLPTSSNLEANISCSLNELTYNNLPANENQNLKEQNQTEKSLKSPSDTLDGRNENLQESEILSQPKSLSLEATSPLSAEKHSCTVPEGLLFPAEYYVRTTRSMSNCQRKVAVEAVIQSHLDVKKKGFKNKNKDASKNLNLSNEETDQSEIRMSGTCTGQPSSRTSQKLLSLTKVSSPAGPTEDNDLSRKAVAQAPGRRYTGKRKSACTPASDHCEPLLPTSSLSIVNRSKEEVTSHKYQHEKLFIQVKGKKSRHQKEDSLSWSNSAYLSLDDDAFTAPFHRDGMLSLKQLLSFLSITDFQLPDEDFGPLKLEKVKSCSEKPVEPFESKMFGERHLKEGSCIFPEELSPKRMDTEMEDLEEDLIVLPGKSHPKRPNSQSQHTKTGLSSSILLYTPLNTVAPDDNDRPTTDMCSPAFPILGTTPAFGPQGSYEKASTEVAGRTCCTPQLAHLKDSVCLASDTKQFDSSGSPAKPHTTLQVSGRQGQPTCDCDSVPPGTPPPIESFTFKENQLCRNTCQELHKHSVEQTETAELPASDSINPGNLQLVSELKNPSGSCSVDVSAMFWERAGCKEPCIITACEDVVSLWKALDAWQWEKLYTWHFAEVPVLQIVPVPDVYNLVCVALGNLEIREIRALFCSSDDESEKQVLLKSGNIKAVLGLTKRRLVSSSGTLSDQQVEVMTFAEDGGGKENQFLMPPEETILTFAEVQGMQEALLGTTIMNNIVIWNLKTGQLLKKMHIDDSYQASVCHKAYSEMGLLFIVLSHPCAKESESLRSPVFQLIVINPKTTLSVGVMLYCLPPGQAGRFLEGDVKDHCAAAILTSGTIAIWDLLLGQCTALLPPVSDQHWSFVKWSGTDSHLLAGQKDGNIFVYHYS

B1: Polymerase eta (Polη), purified human (enzyme, UniProt Q9Y253 1-713, looked up)
chain: MATGQDRVVALVDMDCFFVQVEQRQNPHLRNKPCAVVQYKSWKGGGIIAVSYEARAFGVTRSMWADDAKKLCPDLLLAQVRESRGKANLTKYREASVEVMEIMSRFAVIERASIDEAYVDLTSAVQERLQKLQGQPISADLLPSTYIEGLPQGPTTAEETVQKEGMRKQGLFQWLDSLQIDNLTSPDLQLTVGAVIVEEMRAAIERETGFQCSAGISHNKVLAKLACGLNKPNRQTLVSHGSVPQLFSQMPIRKIRSLGGKLGASVIEILGIEYMGELTQFTESQLQSHFGEKNGSWLYAMCRGIEHDPVKPRQLPKTIGCSKNFPGKTALATREQVQWWLLQLAQELEERLTKDRNDNDRVATQLVVSIRVQGDKRLSSLRRCCALTRYDAHKMSHDAFTVIKNCNTSGIQTEWSPPLTMLFLCATKFSASAPSSSTDITSFLSSDPSSLPKVPVTSSEAKTQGSGPAVTATKKATTSLESFFQKAAERQKVKEASLSSLTAPTQAPMSNSPSKPSLPFQTSQSTGTEPFFKQKSLLLKQKQLNNSSVSSPQQNPWSNCKALPNSLPTEYPGCVPVCEGVSKLEESSKATPAEMDLAHNSQSMHASSASKSVLEVTQKATPNPSLLAAEDQVPCEKCGSLVPVWDMPEHMDYHFALELQKSFLQPHSSNPQVVSAVSHQGKRNPKSPLACTNKRPRPEGMQTLESFFKPLTH
B2: GST-BRCA2 truncation 4 (residues 1338–1781) (domain or fragment, human, UniProt P51587 1338-1781, looked up)
chain: GSDSSKNDTVCIHKDETDLLFTDQHNICLKLSGQFMKEGNTQIKEDLSDLTFLEVAKAQEACHGNTSNKEQLTATKTEQNIKDFETSDTFFQTASGKNISVAKESFNKIVNFFDQKPEELHNFSLNSELHSDIRKNKMDILSYEETDIVKHKILKESVPVGTGNQLVTFQGQPERDEKIKEPTLLGFHTASGKKVKIAKESLDKVKNLFDEKEQGTSEITSFSHQWAKTLKYREACKDLELACETIEITAAPKCKEMQNSLNNDKNLVSIETVVPPKLLSDNLCRQTENLKTSKSIFLKVKVHENVEKETAKSPATCYTNQSPYSVIENSALAFYTSCSRKTSVSQTSLLEAKKWLREGIFDGQPERINTADYVGNYLYENNSNSTIAENDKNHLSEKQDTYLSNSSMSNSYSYHSDEVYNDSGYLSKNKLDSGIEPVLKNVED
B3: GST-PALB2 WD40 domain (residues 853–1186) (domain or fragment, human, UniProt Q86YC2 853-1186, looked up)
chain: GNLQLVSELKNPSGSCSVDVSAMFWERAGCKEPCIITACEDVVSLWKALDAWQWEKLYTWHFAEVPVLQIVPVPDVYNLVCVALGNLEIREIRALFCSSDDESEKQVLLKSGNIKAVLGLTKRRLVSSSGTLSDQQVEVMTFAEDGGGKENQFLMPPEETILTFAEVQGMQEALLGTTIMNNIVIWNLKTGQLLKKMHIDDSYQASVCHKAYSEMGLLFIVLSHPCAKESESLRSPVFQLIVINPKTTLSVGVMLYCLPPGQAGRFLEGDVKDHCAAAILTSGTIAIWDLLLGQCTALLPPVSDQHWSFVKWSGTDSHLLAGQKDGNIFVYHYS

Experiment [1] addresses T1, purified human PALB2 (Partner and …). The experiment in a line: co-IP.
The target in experiment [2] is B1. The experiment is described as follows: co-IP.
Experiment [3] concerns the target B1. The experiment is described as follows: pull-down.

In the case of B1, the binding result in experiment [1] was “binds”.

With B2, the binding result in experiment [2] is reported as “binds”.

On to B3, for which the binding result in experiment [3] is reported as “binds”.
